For experiment [1], the target named is T1, unphosphorylated beta subunit of the insulin receptor (IRβ), recombinant (UniProt P06213 763-1382). Put plainly: SPR; in the presence of C646 (0-100 nM).
Experiment [2] has as its target T1, unphosphorylated beta subunit of the …. The experiment can be described thus: SPR; in the presence of C646 (0-100 nM). This is another data set of the same source. (In general: In SPR one partner is held on a chip, and binding of the other changes the refractive index at the surface.)

This is an account of results in paper PMC8850660 (2022).

T1 sequence (P06213 763-1382): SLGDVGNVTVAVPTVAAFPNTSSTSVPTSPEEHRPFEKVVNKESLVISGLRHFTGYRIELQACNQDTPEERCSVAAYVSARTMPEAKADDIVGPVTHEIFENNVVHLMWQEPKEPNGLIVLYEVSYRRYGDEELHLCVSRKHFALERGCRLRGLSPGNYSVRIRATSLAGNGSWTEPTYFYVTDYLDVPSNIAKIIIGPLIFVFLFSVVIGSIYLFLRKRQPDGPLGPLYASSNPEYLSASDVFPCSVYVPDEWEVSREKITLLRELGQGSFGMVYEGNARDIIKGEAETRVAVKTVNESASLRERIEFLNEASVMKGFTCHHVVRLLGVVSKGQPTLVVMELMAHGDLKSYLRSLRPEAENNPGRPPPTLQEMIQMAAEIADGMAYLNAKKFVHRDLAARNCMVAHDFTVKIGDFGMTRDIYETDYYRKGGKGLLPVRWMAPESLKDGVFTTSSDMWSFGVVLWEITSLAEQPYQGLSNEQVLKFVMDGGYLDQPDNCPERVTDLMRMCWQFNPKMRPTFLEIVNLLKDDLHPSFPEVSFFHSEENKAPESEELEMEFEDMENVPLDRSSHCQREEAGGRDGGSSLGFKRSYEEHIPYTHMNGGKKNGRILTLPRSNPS

B1: purified IRS2 protein (insulin receptor substrate 2) (natural protein)
chain: MASAPLPGPPASAGGDGPNLNNNNNNNNHSVRKCGYLRKQKHGHKRFFVLRGPGTGGDEASAAGGSPPQPPRLEYYESEKKWRSKAGAPKRVIALDCCLNINKRADAKHKYLIALYTKDEYFAVAAENEQEQEGWYRALTDLVSEGRSGEGGSGTTGGSCSASLPGVLGGSAGAAGCDDNYGLVTPATAVYREVWQVNLKPKGLGQSKNLTGVYRLCLSARTIGFVKLNCEQPSVTLQLMNIRRCGHSDSFFFIEVGRSAVTGPGELWMQADDSVVAQNIHETILEAMKALKELFEFRPRSKSQSSGSSATHPISVPGARRHHHLVNLPPSQTGLVRRSRTDSLAATPPAAKCTSCRVRTASEGDGGAAGGAGTAGGRPMSVAGSPLSPGPVRAPLSRSHTLSAGCGGRPSKVTLAPAGGALQHSRSMSMPVAHSPPAATSPGSLSSSSGHGSGSYPLPPGSHPHLPHPLHHPQGQRPSSGSASASGSPSDPGFMSLDEYGSSPGDLRAFSSHRSNTPESIAETPPARDGSGGELYGYMSMDRPLSHCGRPYRRVSGDGAQDLDRGLRKRTYSLTTPARQRQVPQPSSASLDEYTLMRATFSGSSGRLCPSFPASSPKVAYNPYPEDYGDIEIGSHKSSSSNLGADDGYMPMTPGAALRSGGPNSCKSDDYMPMSPTSVSAPKQILQPRLAAALPPSGAAVPAPPSGVGRTFPVNGGGYKASSPAESSPEDSGYMRMWCGSKLSMENPDPKLLPNGDYLNMSPSEAGTAGTPPDFSAALRGGSEGLKGIPGHCYSSLPRSYKAPCSCSGDNDQYVLMSSPVGRILEEERLEPQATPGAGTFGAAGGSHTQPHHSAVPSSMRPSAIGGRPEGFLGQRCRAVRPTRLSLEGLQTLPSMQEYPLPTEPKSPGEYINIDFGEAGTRLSPPAPPLLASAASSSSLLSASSPASSLGSGTPGTSSDSRQRSPLSDYMNLDFSSPKSPKPSTRSGDTVGSMDGLLSPEASSPYPPLPPRPSTSPSSLQQPLPPAPGDLYRLPPASAATSQGPTAGSSMSSEPGDNGDYTEMAFGVAATPPQPIVAPPKPEGARVASPTSGLKRLSLMDQVSGVEAFLQVSQPPDPHRGAKVIRADPQGGRRRHSSETFSSTTTVTPVSPSFAHNSKRHNSASVENVSLRKSSEGSSTLGGGDEPPTSPGQAQPLVAVPPVPQARPWNPGQPGALIGCPGGSSSPMRRETSVGFQNGLNYIAIDVRGEQGSLAQSQPQPGDKNSWSRTRSLGGLLGTVGGSGASGVCGGPGTGALPSASTYASIDFLSHHLKEATVVKE
By Kd is commonly meant the free concentration of one partner at which half of the binding sites on the other are occupied at equilibrium, for simple one-to-one binding. By koff is commonly meant a measure of how fast the partners let go of each other. For B1, the Kd in experiment [1] came out at 7.6 pM. For the same molecule, the koff in experiment [2] is 1.5e-06 s⁻¹.

B2: purified IRS1 protein (insulin receptor substrate 1) (natural protein)
chain: MASPPDTDGFSDVRKVGYLRKPKSMHKRFFVLRAASEAGGPARLEYYENEKKWRHKSSAPKRSIPLESCFNINKRADSKNKHLVALYTRDEHFAIAADSEAEQDSWYQALLQLHNRAKAHHDGAGGGCGGSCSGSSGVGEAGEDLSYDTGPGPAFKEVWQVILKPKGLGQTKNLIGIYRLCLTSKTISFVKLNSEAAAVVLQLMNIRRCGHSENFFFIEVGRSAVTGPGEFWMQVDDSVVAQNMHETILEAMRAMSDEFRPRSKSQSSSSCSNPISVPLRRHHLNNPPPSQVGLTRRSRTESITATSPASMVGGKPGSFRVRASSDGEGTMSRPASVDGSPVSPSTNRTHAHRHRGSSRLHPPLNHSRSIPMPSSRCSPSATSPVSLSSSSTSGHGSTSDCLFPRRSSASVSGSPSDGGFISSDEYGSSPCDFRSSFRSVTPDSLGHTPPARGEEELSNYICMGGKGASTLAAPNGHYILSRGGNGHRYIPGANLGTSPALPGDEAAGAADLDNRFRKRTHSAGTSPTISHQKTPSQSSVASIEEYTEMMPAAYPPGGGSGGRLPGYRHSAFVPTHSYPEEGLEMHHLERRGGHHRPDTSNLHTDDGYMPMSPGVAPVPSNRKGNGDYMPMSPKSVSAPQQIINPIRRHPQRVDPNGYMMMSPSGSCSPDIGGGSSSSSSISAAPSGSSYGKPWTNGVGGHHTHALPHAKPPVESGGGKLLPCTGDYMNMSPVGDSNTSSPSECYYGPEDPQHKPVLSYYSLPRSFKHTQRPGEPEEGARHQHLRLSSSSGRLRYTATAEDSSSSTSSDSLGGGYCGARPESSLTHPHHHVLQPHLPRKVDTAAQTNSRLARPTRLSLGDPKASTLPRVREQQQQQQSSLHPPEPKSPGEYVNIEFGSGQPGYLAGPATSRSSPSVRCPPQLHPAPREETGSEEYMNMDLGPGRRATWQESGGVELGRIGPAPPGSATVCRPTRSVPNSRGDYMTMQIGCPRQSYVDTSPVAPVSYADMRTGIAAEKASLPRPTGAAPPPSSTASSSASVTPQGATAEQATHSSLLGGPQGPGGMSAFTRVNLSPNHNQSAKVIRADTQGCRRRHSSETFSAPTRAGNTVPFGAGAAVGGSGGGGGGGSEDVKRHSSASFENVWLRPGDLGGVSKESAPVCGAAGGLEKSLNYIDLDLAKEHSQDCPSQQQSLPPPPPHQPLGSNEGNSPRRSSEDLSNYASISFQKQPEDRQ
As for B2, in experiment [1], the Kd turned out to be 0.286 pM. In experiment [2], the koff turned out to be 3.92e-08 s⁻¹.
